Experimental data published in the RNAGym collection of RNA variant scans (doi:10.7554/elife.80360).

B1: Hairpin Ribozyme (parent)
chain: GUCCUCUUUCACGUGCGCGUGAAAGAGAGAAGUGAACCAGAGAAACACACGUUGUGGUAUAUUACCUGGUA

Variants of: B1
Assay: self-cleavage, relative activity (ratio to wild type); higher = more cleavage; co-transcriptional

In order of rising self-cleavage:
1. GUCCUCUUUCGCGUGCGCGUGAAAGAGAGAAGAGAACCAGAGAAACACACGUUGUGGUAUAUUACCUGGUA [A11G U33A]  0.0249
2. GUCCUCUUUCUCGUGCGCGUGAAAGAGAGAAGUGAACCAGAGAAAGACACGUUGUGGUAUAUUACCUGGUA [A11U C46G]  0.0538
3. GUCCUCUUUCUCGUGCGCGUGAAAGAGAGAAGUGAACCAGAGAAACACACGUUGUGGUAUAUUACGUGGUA [A11U C66G]  0.0569
4. GUCCUCUUUCGCGUGCGCGUGAAAGAGAGAAGUGAACCAGAGAAAAACACGUUGUGGUAUAUUACCUGGUA [A11G C46A]  0.0804
5. GUCCUCUUUCUCGUGCGCGUGAAAGAGAGAUGUGAACCAGAGAAACACACGUUGUGGUAUAUUACCUGGUA [A11U A31U]  0.0898
6. GUCCUCUUUCUCGUGCGCGUGAAAGAGAGGAGUGAACCAGAGAAACACACGUUGUGGUAUAUUACCUGGUA [A11U A30G]  0.0913
7. GUCCUCUUUCGCGUGCGCGUGAAAGAGAGAAGUGAACCAGAGAAAGACACGUUGUGGUAUAUUACCUGGUA [A11G C46G]  0.0993
8. GUCCUCUUUCGCGUGCGCGUGAAAGAGAGAAGUGAACCAGAGAAACACACGUUGCGGUAUAUUACCUGGUA [A11G U55C]  0.105
9. GUCCUCUUUCGCGUGCGCGUGAAAGAGAGAAGUGAACCAGAGAAACACACGUUGUCGUAUAUUACCUGGUA [A11G G56C]  0.128
10. GUCCUCUUUCUCGUGCGCGUGAAAGAGAGAAGUGAACCAGAAAAACACACGUUGUGGUAUAUUACCUGGUA [A11U G42A]  0.136
11. GUCCUCUUUCUCGUGCGCGUGAAAGAGAGAAGUGAACCAGAGAAACACACGUUGUGGUCUAUUACCUGGUA [A11U A59C]  0.137
12. GUCCUCUUUCGCGUGCGCGUGAAAGAGAGAAGUGAACCAUAGAAACACACGUUGUGGUAUAUUACCUGGUA [A11G G40U]  0.149
13. GUCCUCUUUCGCGUGCGCGUGAAAGAGAGAAGUGAACCAGAGAAACACACGUUGUGGUAUAAUACCUGGUA [A11G U62A]  0.154
14. GUCCUCUUUCUCGUGCGCGUGAAAGAGAGAAGUGAACCAGAGAAAAACACGUUGUGGUAUAUUACCUGGUA [A11U C46A]  0.16
15. GUCCUCUUUCUCGUGCGCGUGAAAGAGAGAAAUGAACCAGAGAAACACACGUUGUGGUAUAUUACCUGGUA [A11U G32A]  0.165
16. GUCCUCUUUCGCGUGCGCGUGAAAGAGAGAAGUGAACCAGAGAAACACACGUUGUGGUAUAUUACGUGGUA [A11G C66G]  0.173
17. GUCCUCUUUCGCGUGCGCGUGAAAGAGACAAGUGAACCAGAGAAACACACGUUGUGGUAUAUUACCUGGUA [A11G G29C]  0.177
18. GUCCUCUUUCUCGUGCGCGUGAAAGAGAGAAGUGAACCACAGAAACACACGUUGUGGUAUAUUACCUGGUA [A11U G40C]  0.178
19. GUCCUCUUUCGCGUGCGCGUGAAAGAGAGAAGUGAACGAGAGAAACACACGUUGUGGUAUAUUACCUGGUA [A11G C38G]  0.188
20. GUCCUCUUUCUCGUGCGCGUGAAACAGAGAAGUGAACCAGAGAAACACACGUUGUGGUAUAUUACCUGGUA [A11U G25C]  0.205
21. GUCCUCUUUCGCGUGCGCGUGAAAGAGAGAAGUGAACAAGAGAAACACACGUUGUGGUAUAUUACCUGGUA [A11G C38A]  0.213
22. GUCCUCUUUCGCGUGCGCGUGAAAGAGAGAAGUGAACCAGAGAAACACACGUUGUGGUAUAUUACCCGGUA [A11G U67C]  0.214
23. GUCCUCUUUCGCGUGCGCGUGAAAGAGAGAAGUGAACCAGAGAAACACACGUUGUGGUAUAUUACCUGUUA [A11G G69U]  0.215
24. GUCCUCUUUCUCGUGCGCGUGAAAGAGAGAAGUGAACCAGAGACACACACGUUGUGGUAUAUUACCUGGUA [A11U A44C]  0.216
25. GUCCUCUUUCGCGUGCGCGUGAAAGAGAGAAGUGAACCAGAGAAACACACGUUGUAGUAUAUUACCUGGUA [A11G G56A]  0.229
26. GUCCUCUUUCUCGUGCGCGUGAAAGAGAGAAGUGAACCAGAGAAACACCCGUUGUGGUAUAUUACCUGGUA [A11U A49C]  0.24
27. GUCCUCUUUCUCGUGCGCGUGAAAGAGAGAAGUGAACCAAAGAAACACACGUUGUGGUAUAUUACCUGGUA [A11U G40A]  0.242
28. GUCCUCUUUCUCGUGCGCGUGAAAGAGAGAAGUGAACCAGAGAAACACACGUUGUGGUAUUUUACCUGGUA [A11U A61U]  0.247
29. GUCCUCUUUCGCGUGCGCGUGAAAGAUAGAAGUGAACCAGAGAAACACACGUUGUGGUAUAUUACCUGGUA [A11G G27U]  0.248
30. GUCCUCUUUCUCGUGCGCGUGAAAGAGAGAAGUGAACCAGAGAAACACUCGUUGUGGUAUAUUACCUGGUA [A11U A49U]  0.251
31. GUCCUCUUUCUCGUGCGCGUGAAAGAGAGAAGUGAACCAGAGAAUCACACGUUGUGGUAUAUUACCUGGUA [A11U A45U]  0.255
32. GUCCUCUUUCUCGUGCGCGUGAAAGAGAGAAGUGAACCAGAGAAACACACGUUGUGGUUUAUUACCUGGUA [A11U A59U]  0.256
33. GUCCUCUUUCUCGUGCGCGUGAAAGAGAGAAGUGAACCAGAGAAACACAGGUUGUGGUAUAUUACCUGGUA [A11U C50G]  0.258
34. GUCCUCUUUCUCGUGCGCGUGAAAGAGAGAAGUGAACCAGAGAAACUCACGUUGUGGUAUAUUACCUGGUA [A11U A47U]  0.266
35. GUCCUCUUUCGCGUGCGCGUGAAAGAGAGAAGUGAACCAGAGAAACACACGUUCUGGUAUAUUACCUGGUA [A11G G54C]  0.297
36. GUCCUCUUUCGCGUGCGCGUGAAAGAGAGAAGUGAACCAGAGAAACACACGUUGUGGUAUAUUAGCUGGUA [A11G C65G]  0.31
37. GUCCUCUUUCUCGUGCGCGUGAAAGAGAGAAGUGAACCAGAGAAACACACGUUCUGGUAUAUUACCUGGUA [A11U G54C]  0.333
38. GUCCUCUUUCUCGUGCGCGUGAAAGAGAGAAGUGAACCGGAGAAACACACGUUGUGGUAUAUUACCUGGUA [A11U A39G]  0.342
39. GUCCUCUUUCGCGUGCGCGUGAAAGAAAGAAGUGAACCAGAGAAACACACGUUGUGGUAUAUUACCUGGUA [A11G G27A]  0.353
40. GUCCUCUUUCGCGUGCGCGUGAAAGAGAGAAGUGAAUCAGAGAAACACACGUUGUGGUAUAUUACCUGGUA [A11G C37U]  0.357
41. GUCCUCUUUCUCGUGCGCGUGCAAGAGAGAAGUGAACCAGAGAAACACACGUUGUGGUAUAUUACCUGGUA [A11U A22C]  0.363
42. GUCCUCUUUCUCGUGCGCGUGAAAGAAAGAAGUGAACCAGAGAAACACACGUUGUGGUAUAUUACCUGGUA [A11U G27A]  0.406
43. GUCCUCUUUCGCGUGCGCGUGAAAAAGAGAAGUGAACCAGAGAAACACACGUUGUGGUAUAUUACCUGGUA [A11G G25A]  0.43
44. GUCCUCUUUCGCGUGCGCGUGAAAGAGAGAAGUGAACUAGAGAAACACACGUUGUGGUAUAUUACCUGGUA [A11G C38U]  0.432
45. GUCCUCUUUCUCGUGCGCGUGAAAGAGAGAAGUGAACUAGAGAAACACACGUUGUGGUAUAUUACCUGGUA [A11U C38U]  0.47
46. GUCCUCUUUCUCGUGCGCGUGAAAGAGUGAAGUGAACCAGAGAAACACACGUUGUGGUAUAUUACCUGGUA [A11U A28U]  0.494
47. GUCCUCUUUCUCGUGCGCGUGUAAGAGAGAAGUGAACCAGAGAAACACACGUUGUGGUAUAUUACCUGGUA [A11U A22U]  0.501
48. GUCCUCUUUCUCUUGCGCGUGAAAGAGAGAAGUGAACCAGAGAAACACACGUUGUGGUAUAUUACCUGGUA [A11U G13U]  0.54
49. GUCCUCUUUCUCGUGCGCGUCAAAGAGAGAAGUGAACCAGAGAAACACACGUUGUGGUAUAUUACCUGGUA [A11U G21C]  0.549
50. GUCCUCUUUCUCGUGCCCGUGAAAGAGAGAAGUGAACCAGAGAAACACACGUUGUGGUAUAUUACCUGGUA [A11U G17C]  0.566
51. GUCCUCUUUCGCCUGCGCGUGAAAGAGAGAAGUGAACCAGAGAAACACACGUUGUGGUAUAUUACCUGGUA [A11G G13C]  0.567
52. GUCCUCUUUCGCGUGCGCGUCAAAGAGAGAAGUGAACCAGAGAAACACACGUUGUGGUAUAUUACCUGGUA [A11G G21C]  0.618
53. GUCCUCUUUCGCUUGCGCGUGAAAGAGAGAAGUGAACCAGAGAAACACACGUUGUGGUAUAUUACCUGGUA [A11G G13U]  0.662
54. GUCCUCUUUCGCGUGCGCGUGAAAGAGAGAAGUGAACCAGAGAAACACACGGUGUGGUAUAUUACCUGGUA [A11G U52G]  0.681
55. GUCCUCUUUCUCGUGCGCGUGAAAGAGAGAAGUGAGCCAGAGAAACACACGUUGUGGUAUAUUACCUGGUA [A11U A36G]  0.7
56. GUCCUCUUUCUCGUGCGCGUGAAAGAGAGAAGUGAACCAGAGAAACACACCUUGUGGUAUAUUACCUGGUA [A11U G51C]  0.706
57. GUCCUCUUUCGCGUGCGCGUGAAAGAGAGAAGUGAACCAGAGAAACACACUUUGUGGUAUAUUACCUGGUA [A11G G51U]  0.713
58. GUCCUCUUUCUCGUGCGCGUGAUAGAGAGAAGUGAACCAGAGAAACACACGUUGUGGUAUAUUACCUGGUA [A11U A23U]  0.728
59. GUCCUCUUUCUCCUGCGCGUGAAAGAGAGAAGUGAACCAGAGAAACACACGUUGUGGUAUAUUACCUGGUA [A11U G13C]  0.737
60. GUCCUCUUUCUGGUGCGCGUGAAAGAGAGAAGUGAACCAGAGAAACACACGUUGUGGUAUAUUACCUGGUA [A11U C12G]  0.74
61. GUCCUCUUUCGCGUGCGCCUGAAAGAGAGAAGUGAACCAGAGAAACACACGUUGUGGUAUAUUACCUGGUA [A11G G19C]  0.784
62. GUCCUCUUUCUCGUGCGCGUGAAGGAGAGAAGUGAACCAGAGAAACACACGUUGUGGUAUAUUACCUGGUA [A11U A24G]  0.813
63. GUCCUCUUUCGCGUGCGGGUGAAAGAGAGAAGUGAACCAGAGAAACACACGUUGUGGUAUAUUACCUGGUA [A11G C18G]  0.816
64. GUCCUCUUUCUCGUACGCGUGAAAGAGAGAAGUGAACCAGAGAAACACACGUUGUGGUAUAUUACCUGGUA [A11U G15A]  0.849
65. GUCCUCUUUCUCGUCCGCGUGAAAGAGAGAAGUGAACCAGAGAAACACACGUUGUGGUAUAUUACCUGGUA [A11U G15C]  0.85
66. GUCCUCUUUCGCGUCCGCGUGAAAGAGAGAAGUGAACCAGAGAAACACACGUUGUGGUAUAUUACCUGGUA [A11G G15C]  0.859
67. GUCCUCUUUCGCGAGCGCGUGAAAGAGAGAAGUGAACCAGAGAAACACACGUUGUGGUAUAUUACCUGGUA [A11G U14A]  0.916
68. GUCCUCUUUCGCGUGCGCGUGAAAGAGAGAAGUGAACCAGAGAAACACACAUUGUGGUAUAUUACCUGGUA [A11G G51A]  0.93
69. GUCCUCUUUCUCGUGCGCGUGAAAGAGAGAAGUGAACCAGAGAAACACACGUUGUGGUAUAUUACCUGGUG [A11U A71G]  0.977
70. GUCCUCUUUCUCGUGCGCGUGAAAGAGAGAAGUGAACCAGUGAAACACACGUUGUGGUAUAUUACCUGGUA [A11U A41U]  1
71. GUCCUCUUUCUCGUGCGCGUGAAAGAGAGAAGUGAACCAGCGAAACACACGUUGUGGUAUAUUACCUGGUA [A11U A41C]  1.01
72. GUCCUCUUUCGCGUGCACGUGAAAGAGAGAAGUGAACCAGAGAAACACACGUUGUGGUAUAUUACCUGGUA [A11G G17A]  1.01
73. GUCCUCUUUCGCGUGCGCGUGAAAGAGAGAAGUGAACCAGAGAAACACACGUCGUGGUAUAUUACCUGGUA [A11G U53C]  1.02
74. GUCCUCUUUCUCGUGUGCGUGAAAGAGAGAAGUGAACCAGAGAAACACACGUUGUGGUAUAUUACCUGGUA [A11U C16U]  1.02
75. GUCCUCUUUCGCGUGCGCGUGAAAGAGAGAAGUUAACCAGAGAAACACACGUUGUGGUAUAUUACCUGGUA [A11G G34U]  1.17
76. GUCCUCUUUCUCGUGCGCGUGAAAGAGAGAAGUUAACCAGAGAAACACACGUUGUGGUAUAUUACCUGGUA [A11U G34U]  1.36
